Results from publication PMC11612440 (2024).
Like-named read-outs stand apart in the source and are kept apart here.

T1: BCL11B protein, MBP-tag-fused recombinant (pETMBP.3C-Bcl11b) (mouse, UniProt Q99PV8 1-884)
T1 chain: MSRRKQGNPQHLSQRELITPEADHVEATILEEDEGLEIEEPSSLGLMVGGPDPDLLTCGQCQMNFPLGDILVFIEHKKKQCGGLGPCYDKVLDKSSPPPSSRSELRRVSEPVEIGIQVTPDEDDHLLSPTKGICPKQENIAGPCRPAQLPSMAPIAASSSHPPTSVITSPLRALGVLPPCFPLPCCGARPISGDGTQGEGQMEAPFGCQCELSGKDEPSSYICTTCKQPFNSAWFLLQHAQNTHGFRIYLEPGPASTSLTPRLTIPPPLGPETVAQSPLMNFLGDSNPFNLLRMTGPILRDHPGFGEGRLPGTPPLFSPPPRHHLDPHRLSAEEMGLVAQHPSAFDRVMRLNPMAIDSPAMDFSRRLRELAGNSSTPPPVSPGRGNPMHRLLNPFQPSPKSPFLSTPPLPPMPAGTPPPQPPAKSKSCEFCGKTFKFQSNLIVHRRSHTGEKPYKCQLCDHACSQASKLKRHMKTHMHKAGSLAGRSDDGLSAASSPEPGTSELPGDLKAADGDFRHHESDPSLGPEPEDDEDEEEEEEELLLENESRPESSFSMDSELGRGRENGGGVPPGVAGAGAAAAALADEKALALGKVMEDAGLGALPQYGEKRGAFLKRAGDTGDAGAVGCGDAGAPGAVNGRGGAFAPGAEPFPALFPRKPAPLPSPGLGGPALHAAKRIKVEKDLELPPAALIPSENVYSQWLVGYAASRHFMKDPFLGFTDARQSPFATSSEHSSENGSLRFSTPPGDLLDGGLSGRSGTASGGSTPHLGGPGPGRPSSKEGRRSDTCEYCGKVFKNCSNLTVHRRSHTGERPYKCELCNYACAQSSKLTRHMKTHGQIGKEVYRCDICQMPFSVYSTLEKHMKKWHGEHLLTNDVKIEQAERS

B1: β-catenin, MBP-tag-fused recombinant (pETMBP.3C-β-catenin) (natural protein)
chain: MATQADLMELDMAMEPDRKAAVSHWQQQSYLDSGIHSGATTTAPSLSGKGNPEEEDVDTSQVLYEWEQGFSQSFTQEQVADIDGQYAMTRAQRVRAAMFPETLDEGMQIPSTQFDAAHPTNVQRLAEPSQMLKHAVVNLINYQDDAELATRAIPELTKLLNDEDQVVVNKAAVMVHQLSKKEASRHAIMRSPQMVSAIVRTMQNTNDVETARCTAGTLHNLSHHREGLLAIFKSGGIPALVKMLGSPVDSVLFYAITTLHNLLLHQEGAKMAVRLAGGLQKMVALLNKTNVKFLAITTDCLQILAYGNQESKLIILASGGPQALVNIMRTYTYEKLLWTTSRVLKVLSVCSSNKPAIVEAGGMQALGLHLTDPSQRLVQNCLWTLRNLSDAATKQEGMEGLLGTLVQLLGSDDINVVTCAAGILSNLTCNNYKNKMMVCQVGGIEALVRTVLRAGDREDITEPAICALRHLTSRHQEAEMAQNAVRLHYGLPVVVKLLHPPSHWPLIKATVGLIRNLALCPANHAPLREQGAIPRLVQLLVRAHQDTQRRTSMGGTQQQFVEGVRMEEIVEGCTGALHILARDVHNRIVIRGLNTIPLFVQLLYSPIENIQRVAAGVLCELAQDKEAAEAIEAEGATAPLTELLHSRNEGVATYAAAVLFRMSEDKPQDYKKRLSVELTSSLFRTEPMAWNETADLGLDIGAQGEALGYRQDDPSYRSFHSGGYGQDALGMDPMMEHEMGGHHPGADYPVDGLPDLGHAQDLMDGLPPGDSNQLAWFDTDL
B2: MBD3, MBP-tag-fused recombinant (pETMBP.3C-Mbd3) (natural protein)
chain: MERKRWECPALPQGWEREEVPRRSGLSAGHRDVFYYSPSGKKFRSKPQLARYLGGSMDLSTFDFRTGKMLMNKMNKSRQRVRYDSSNQVKGKPDLNTALPVRQTASIFKQPVTKITNHPSNKVKSDPQKAVDQPRQLFWEKKLSGLSAFDIAEELVRTMDLPKGLQGVGPGCTDETLLSAIASALHTSTLPITGQLSAAVEKNPGVWLNTAQPLCKAFMVTDDDIRKQEELVQQVRKRLEEALMADMLAHVEELARDGEAPLDKACAEEEEEEEEEEEEPEPERV

Assays:
[1] = biological target: T1, BCL11B protein, MBP-tag-fused …; experiment: SPR
[2] = biological target: T1, BCL11B protein, MBP-tag-fused …; experiment: SPR

Binder	Kd [1] [nM]	Kd [2] [nM]
B1	0.609	–
B2	–	2.42
